This is an account of results in publication PMC8819291, “Adaptively evolved human oral actinomyces‐sourced defensins show therapeutic potential” (EMBO Molecular Medicine, 2021).

The subject of assay [1] is Streptococcus sanguinis ATCC 1.2497. In words: Inhibition-zone-based synergy assay. The format is cell-based. As to conditions: 0.05 nmol/well, without AMSIN.
The subject of assay [2] is Streptococcus salivarius ATCC 1.2498. In words: Inhibition-zone-based synergy assay. As to conditions: 0.05 nmol/well, without AMSIN. The format is cell-based.

B1: hLZc: lysozyme C isolated from human saliva (protein)
chain: KVFERCELARTLKRLGMDGYRGISLANWMCLAKWESGYNTRATNYNAGDRSTDYGIFQINSRYWCNDGKTPGAVNACHLSCSALLQDNIADAVACAKRVVRDPQGIRAWVAWRNRCQNRDVRQYVQGCGV
Take B1: the “Inhibition zone of the factor alone” value in assay [1] and in assay [2] was “no visible inhibition zones” each time.
